# Source: the RNAGym collection of RNA variant scans (doi:10.7554/elife.80360)
# B1: Twister Ribozyme (parent)
# chain: AACACUGCCAAUGCCGGUCCCAAGCCCGGAUAAAAGUGGAGGGGGCGG
# Variants of: B1
# Experiment: self-cleavage, relative activity (ratio to wild type); higher = more cleavage; co-transcriptional
row,Variant,self-cleavage
1,G16C G28U,0.383
2,G17A G43U,0.123
3,G17A G43C,0.129
4,G16U A32G,1.02
5,G16U A32U,1
6,G16C G43A,0.148
7,G17U U31G,0.339
8,G17U U31A,0.471
9,G16U C21G,0.101
10,G16U C21U,0.105
11,G16U C21A,0.137
12,G16C C46A,0.693
13,G16C C46G,0.262
14,G16C G29U,0.194
15,G16C G45A,0.161
16,G16C G45U,0.379
17,G16C G45C,0.249
18,G17A A22G,0.136
19,G17A A22U,0.258
20,G17A A22C,0.669
21,G17C A34G,0.112

row,Variant,self-cleavage
1,G17C A34U,0.0853
2,G17C U31A,0.138
3,C15U G17A,0.204
4,C15U G17U,0.204
5,U18A A40C,0.133
6,U18A A40U,0.147
7,G16A G38U,0.656
8,G16C A30U,0.741
9,G16C A30G,0.31
10,G17C C20G,0.0846
11,G16A A40U,0.125
12,G16A A40G,0.17
13,C15U C26A,0.126
14,G16C C26A,0.35
15,G17U G28A,0.11
16,G17U G28U,0.122
17,G16A A23G,0.161
18,G16A A23C,0.137
19,G17A G44C,0.733
20,G17A G44A,0.671
21,G16A C19G,0.172

row,Variant,self-cleavage
1,C15U G36U,0.203
2,C15U G36A,0.454
3,G17C C21A,0.0572
4,G16C G24C,0.0655
5,G16C G24A,0.0685
6,C15U G45A,0.924
7,C15U G45U,0.817
8,C15U G45C,0.64
9,G16A G28A,0.48
10,G16A G28C,0.489
11,G16U C46G,0.963
12,C15U C20U,0.845
13,G17U C27G,0.424
14,G17U C27U,0.207
15,G17U C21U,0.0901
16,G17A C20U,0.373
17,G17C C19A,0.0513
18,G17C C19U,0.105
19,G17C C19G,0.0591
20,G16U A40G,0.206
21,G16A G42C,0.241

row,Variant,self-cleavage
1,G16A G48A,0.979
2,G16A G48C,1.08
3,G16A G48U,0.917
4,G17A G41C,0.164
5,G16U G43U,0.313
6,G16U G43C,0.183
7,G16U G43A,0.203
8,U18A A23U,0.753
9,U18A A23C,0.372
10,G17U C26U,0.458
11,G17U C26G,0.637
12,G17A G39C,0.105
13,G17A G39U,0.165
14,G16A G39C,0.141
15,G16A G39A,0.185
16,G16C A40G,0.135
17,G17U A35G,0.1
18,G17U A35C,0.305
19,G17U A40C,0.123
20,G17U A40G,0.0578
21,G17A G24A,0.118
